Assay [1] deals with T1, biotin-^K48Ub4 (chemically synthesized K48-linked tetra-ubiquitin, biotin on the distal Ub) (UniProt P0CG48 1-76, isopeptide bonds from the C-terminus of each Ub to Lys48 of the next Ub; biotin at the N-terminus of the distal Ub).
T1 construct: mature; also called Ub tetramer
Put plainly: SPR (Biacore T100), biotin-Ub chain on the chip, peptide in flow; error 4. Background: In SPR one partner is held on a chip, and binding of the other changes the refractive index at the surface.

Assay [2] deals with T1, biotin-^K48Ub4 (chemically synthesized …). The experiment in a line: SPR (Biacore T100), biotin-Ub chain on the chip, peptide in flow; error 0.002.
The target is the same in assay [3]. Put plainly: SPR (Biacore T100), biotin-Ub chain on the chip, peptide in flow; error 7.30E+05.
Assay [4] concerns the target T2, biotin-^K48Ub2 (chemically synthesized K48-linked di-ubiquitin, biotin on the distal Ub) (UniProt P0CG48 1-76, isopeptide bond from the C-terminus of the distal Ub to Lys48 of the proximal Ub; biotin at the N-terminus of the distal Ub).
T2 construct: mature; also called Lys48-linked ubiquitin dimer
The experiment in a line: SPR, K48-Ub2.

Assay [5] addresses T2, biotin-^K48Ub2 (chemically synthesized …). Put plainly: SPR (Biacore T100), biotin-Ub chain on the chip, peptide in flow; error 8.
The target in assay [6] is T1, biotin-^K48Ub4 (chemically synthesized …). The experiment in a line: SPR (Biacore T100), biotin-Ub chain on the chip, peptide in flow; error 7.
For assay [7], the target named is T2, biotin-^K48Ub2 (chemically synthesized …). Put plainly: SPR (Biacore T100), biotin-Ub chain on the chip, peptide in flow; error 28.
For assay [8] the target is unchanged. The experiment in a line: SPR, K48-Ub2. The source holds these as a separate data set.
Assay [9] shares this target. The experiment in a line: SPR, K48-Ub2; mClBz anchor; wildtype J08, no mutations.

Starred links: 1 amine or outer side, 2 acyl side, 3 side chain; linkers in the order of their positions; H or OH if unused. Positions of bridges follow the written chain, without caps; N, C: chain ends. Non-standard residues stand in square brackets, D forms with d. No end group written: not given here. mClBz = N-terminal chlorobenzyl thioether anchor (M*) that cyclises onto the Cys, the meta form of the mClBz/pClBz pair, O=C(c1cccc(C[*:3])c1)[*:2]; code ∗ = not defined here

In the case of {CH2CO}-[dW]GWFDNLYWYVTHCG (thioether N-14, also called U2i) [Ub2i cyclic peptide], the Kd (usually the constant that tells how readily two partners part at equilibrium) in assay [1] amounted to 14 nM.
For {code ∗}-[dW]LYLDDSGDWWICG (thioether N-13 (inferred); reading uncertain; also: printed as *WLYLDDSGDWWICG, also called U4ix; Ub4xi) [Ub4ix cyclic peptide], in [2], the koff – broadly, the first-order rate constant of dissociation – came to 0.021 s⁻¹. Moreover, in assay [3], the on-rate constant (kon) – broadly, a measure of how fast the partners come together – came to 3.52e+06 M⁻¹ s⁻¹.

B1: Ub2ii cyclic peptide (peptide)
peptide: WWYDREYYYLGYGCG
modifications: position 1 is ClAc-D-Trp (M* of Table 2); macrocycle closed between the N-terminal chloroacetyl group and the Cys
notes: also called U2ii
In the case of B1, the dissociation constant Kd in [4] turned out to be 33 nM; in assay [5], 33 nM; in [1] it was 14 nM.

B2: Ub4i cyclic peptide (peptide)
peptide: WGWFDDLYLFVAYCG
modifications: position 1 is ClAc-D-Trp (M* of Table 2); macrocycle closed between the N-terminal chloroacetyl group and the Cys
notes: also called U4i
Take B2: the Kd in [6] stood at 26 nM; in [7] it was 91 nM; in assay [4], 90 nM; in [8], 90 nM.
For mClBz-GWFDDLYLFVAYCG (bridge N-13; not fully specified (bridges), also called J08 (M* = mClBz)) [J08_mClBz], the dissociation constant (Kd) in [4] and in assay [9] was 10 nM each time.
On to mClBz-GWFDDEYLFVAYCG (bridge N-13; not fully specified (bridges)) [J08_mClBz_L6E], for which the dissociation constant Kd in [4] and in assay [8] was 5 nM each time.

The values are drawn from patent US12084523 (TECHNION RESEARCH AND DEVELOPMENT FOUNDATION, dated 2024).
